We go through one molecule from patent publication US20030180295A1, “Angiocidin: a Cys-Ser-Val-Thr-Cys-Gly specific tumor cell adhesion receptor” (Philadelphia Health and Education Corporation, priority 1999, published 2003).

For test [1], the target named is TSP-1 (Homo sapiens, UniProt P07996). Description: Optical binding of angiocidin fragments to TSP-1 derivatized cuvette. Particulars: test proteins at 10 nm in PBS buffer. As to the method: This study examines the amino terminal (Met1-Lys132) and carboxy terminal (IIe248-Lys380) portions of angiocidin (SEQ ID NOS: 24 and 25, respectively). The binding of undenatured recombinant angiocidin fragments was compared to full length angiocidin. GST was used as a negative control. Binding was evaluated using an optical binding method that uses a cuvette to which TSP-1 is covalently coupled. A laser beam was used to detect whether the test protein (fragments, angiocidin, or GST) is bound to the TSP-1 derivatized cuvette surface. The cuvette was derivatized with 1 μg of TSP-1. The cuvette surfaces were blocked with a 1% BSA solution to prevent nonspecific binding. The test proteins were added at a concentration of […] in a PBS buffer.
Sequence of TSP-1 (P07996 19-1170): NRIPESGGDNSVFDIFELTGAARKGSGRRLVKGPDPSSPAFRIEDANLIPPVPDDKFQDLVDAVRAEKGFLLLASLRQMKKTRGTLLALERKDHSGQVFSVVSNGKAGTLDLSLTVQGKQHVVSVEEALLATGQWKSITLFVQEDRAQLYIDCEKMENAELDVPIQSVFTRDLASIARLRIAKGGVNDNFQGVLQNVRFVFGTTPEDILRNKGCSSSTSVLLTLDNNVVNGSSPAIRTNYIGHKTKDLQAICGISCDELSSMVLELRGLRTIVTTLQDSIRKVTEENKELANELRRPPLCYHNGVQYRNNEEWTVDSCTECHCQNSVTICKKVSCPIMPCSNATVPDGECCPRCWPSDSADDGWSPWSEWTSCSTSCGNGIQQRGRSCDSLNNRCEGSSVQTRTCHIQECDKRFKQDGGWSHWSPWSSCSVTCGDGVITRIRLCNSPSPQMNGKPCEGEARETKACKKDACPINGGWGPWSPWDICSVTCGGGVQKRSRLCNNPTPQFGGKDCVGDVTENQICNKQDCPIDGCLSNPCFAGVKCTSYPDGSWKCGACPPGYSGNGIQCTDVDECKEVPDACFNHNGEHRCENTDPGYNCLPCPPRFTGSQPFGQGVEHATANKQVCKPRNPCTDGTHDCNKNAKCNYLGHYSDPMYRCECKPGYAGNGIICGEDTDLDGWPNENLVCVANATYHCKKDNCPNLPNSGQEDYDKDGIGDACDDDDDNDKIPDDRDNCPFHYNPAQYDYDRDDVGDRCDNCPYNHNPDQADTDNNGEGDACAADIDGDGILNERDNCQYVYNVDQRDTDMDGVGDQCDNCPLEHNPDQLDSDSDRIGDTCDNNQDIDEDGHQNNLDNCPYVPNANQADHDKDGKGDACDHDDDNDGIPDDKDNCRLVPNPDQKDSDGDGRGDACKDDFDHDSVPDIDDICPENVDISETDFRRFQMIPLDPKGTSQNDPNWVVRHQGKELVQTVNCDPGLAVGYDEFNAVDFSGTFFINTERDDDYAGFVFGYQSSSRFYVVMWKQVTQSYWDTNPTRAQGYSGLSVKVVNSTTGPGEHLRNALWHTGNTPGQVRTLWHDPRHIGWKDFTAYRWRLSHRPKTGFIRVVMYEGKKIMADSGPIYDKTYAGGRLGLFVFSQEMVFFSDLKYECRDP

The subject of test [2] is Bovine aortic endothelial cells (BAEC). Put plainly: ALAMAR BLUE cell viability assay. In kind it is cell-based. How it is done: Bovine aortic endothelial cells (BAEC), human umbilical vein endothelial cells (HUVEC), fibroblast cells, A549 human lung carcinoma cells (A549), MDA-MB231 human breast carcinoma cells (MB231), MCF7 human breast carcinoma cells (MCF7) were treated with 37 μg/ml of receptor, or buffer alone, for 24 hours. Viability of the cells was measured using the ALAMAR BLUE™ assay, which measures the capacity of cells to metabolize the ALAMAR BLUE™ dye. The ALAMAR BLUE™ assay (available from Biosource International, Camarillo, Calif.) quantitatively measures the proliferation of cell lines and can establish the relative cytotoxicity of chemical agents. […] Data can be collected using either fluorescence-based instrumentation (530-560 nm excitation wavelength and 590 nm emission wavelength) or absorbance-based instrumentation (570 nm and 600 nm).
BAEC and BSM cells were treated with increasing concentrations of angiocidin (0, 0.625, 1.25, 2.5, 5, 15, 26 and 37 μg/ml) for 24 hours. Cell viability was measured using the ALAMAR BLUE Tm assay. […]
Bovine aortic endothelial cells (BAEC) were cultured overnight in serum-free media containing either 37 μg/ml his-tagged angiocidin or his-tagged GST. […] Viability was measured by the ALAMAR BLUE™ assay. […]
The endothelial cells (BAEC) were incubated overnight 37 μg/ml of the angiocidin, fragments, and GST. Viability was measured using the ALAMAR BLUE™ assay.
(The colour change of resazurin is a common sign of viable cells or microbes.)

B1: amino terminal fragment Met1-Lys132: amino terminal fragment Met1-Lys132 of angiocidin (SEQ ID NO: 24) (protein, listed as Homo sapiens)
chain: MVLESTMVCVDNSEYMRNGDFLPTRLQAQQDAVNIVCHSKTRSNPENNVGLITLANDCEVLTTLTPDTGRILSKLHTVQPKGKITFCTGIRVAHLALKHRQGKNHKMRIIAFVGSPVEDNEKDLVKLAKRLK
Consider B1, for which, in test [1], the “binding to TSP-1 derivatized cuvette” value is “show very similar binding at the nano molar range”. For the same molecule, in test [2] (37 μg/ml, overnight), the “anti-endothelial activity compared to angiocidin” value is reported as “has the same anti-endothelial activity as the full length angiocidin”. Further, in test [2] (Example 27, FIG. 34), the “cell viability, angiocidin and fragments” value is “inhibited cell viability”.
